# Laboratory results: CN111253487A (GUANGDONG HEC PHARMACEUTICAL, dated 2020)
# B1: 10H10-1 scFv (单链抗体10H10-1) (scFv)
# scFv: DIVMTQTPLSLPVSLGDQVSISCRSSQTLVYSNGDTYLEWYLQKPGQSPKLLIYKLSNRFSGVPDRFSGSGSGTDFTLKISRVESEDLGVYYCFQGSYFPFTFGAGTKLEIKGGGGSGGGGSGGGGSEVQLQQSGAELVRPGTSVKVSCKASGYAFTNYFIEWVIQRPGQGLEWIGVINPGNSNTNYNEKFKGKATLTADKSSSTAYMQLSSLTSDDSAVYFCARSGTTATTYAMDYWGQGTSVIVSS
# notes: It was detected with PE-labelled goat anti-human antibody, and no tag or Fc is stated; also called CD19 scfv抗体 10H10-1
# B2: 抗CD19鼠源抗体 10H10-1 (antibody, V domains shown)
# VH: EVQLQQSGAELVRPGTSVKVSCKASGYAFTNYFIEWVIQRPGQGLEWIGVINPGNSNTNYNEKFKGKATLTADKSSSTAYMQLSSLTSDDSAVYFCARSGTTATTYAMDYWGQGTSVIVSS
# VL: DIVMTQTPLSLPVSLGDQVSISCRSSQTLVYSNGDTYLEWYLQKPGQSPKLLIYKLSNRFSGVPDRFSGSGSGTDFTLKISRVESEDLGVYYCFQGSYFPFTFGAGTKLEIK
# notes: Murine anti-CD19 antibody from a hybridoma
# Columns and labels:
# [1] = molecular target: T1, 表达在肿瘤细胞NALM-6表面的CD19 (UniProt P15391 20-556, limits assumed); assay: flow cytometry of scFv on NALM-6 cells, PE goat anti-human secondary
# T1 construct: whole, on cells; also called CD19阳性细胞; NALM-6细胞
# T1 sequence (looked up): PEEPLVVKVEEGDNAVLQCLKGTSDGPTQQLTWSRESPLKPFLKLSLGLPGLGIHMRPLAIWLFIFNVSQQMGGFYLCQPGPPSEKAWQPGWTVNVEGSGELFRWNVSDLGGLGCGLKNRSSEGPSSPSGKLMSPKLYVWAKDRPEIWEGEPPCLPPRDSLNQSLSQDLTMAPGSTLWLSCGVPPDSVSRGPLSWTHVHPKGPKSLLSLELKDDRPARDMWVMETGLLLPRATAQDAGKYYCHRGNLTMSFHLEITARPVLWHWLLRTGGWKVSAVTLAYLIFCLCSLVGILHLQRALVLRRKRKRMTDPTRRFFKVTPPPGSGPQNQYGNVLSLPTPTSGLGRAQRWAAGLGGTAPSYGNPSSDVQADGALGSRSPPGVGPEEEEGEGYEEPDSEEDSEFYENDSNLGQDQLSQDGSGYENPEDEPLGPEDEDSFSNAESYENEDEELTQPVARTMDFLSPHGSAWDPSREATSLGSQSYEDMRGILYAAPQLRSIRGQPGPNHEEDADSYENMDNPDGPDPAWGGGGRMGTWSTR
# [2] = molecular target: T1, 表达在肿瘤细胞NALM-6表面的CD19; assay: flow cytometry on NALM-6 cells, FITC goat anti-mouse secondary
# [3] = molecular target: T2, CD19蛋白 (购自acro) (UniProt P15391 20-291); assay: ELISA, CD19 protein coated, antibody in twofold dilutions from 0.1mg/mL, OD450
# T2 construct: also called 重组CD19蛋白 (ACRO, CD9-H52H2)
# T2 sequence (looked up): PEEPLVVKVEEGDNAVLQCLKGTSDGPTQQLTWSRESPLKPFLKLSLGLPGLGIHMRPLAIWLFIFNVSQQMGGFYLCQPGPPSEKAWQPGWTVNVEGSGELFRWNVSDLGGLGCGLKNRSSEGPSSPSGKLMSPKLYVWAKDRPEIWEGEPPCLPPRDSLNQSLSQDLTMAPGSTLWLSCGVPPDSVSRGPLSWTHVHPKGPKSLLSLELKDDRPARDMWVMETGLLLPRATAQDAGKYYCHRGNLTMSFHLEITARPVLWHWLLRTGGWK
# [4] = molecular target: T3, CD19胞外区蛋白 (abcam, ab234966, 氨基酸序列编号第20位至291位) (UniProt P15391 20-291); assay: western blot on reduced, denatured CD19 extracellular domain, antibody at 20μg/mL
# T3 construct: range 20-291; also called 变性的CD19重组蛋白; CD19重组蛋白
# T3 sequence (looked up): T2 sequence (looked up)
Binder,binding result [1],binding result [2],binding result [3],binding result [4]
B1,binds,,,
B2,,binds,binds,binds
